Assays:
[1] = system: COc1cc(C=NN=Cc2cc(OC)c(O)c(OC)c2)cc(OC)c1O; test: purified protein; details: optimal pH 6.0, 90°C
COc1ccccc1O = test: purified protein; details: optimal pH 7.5, 90°C

Q: Which results are given for “LacTT (Thermus thermophilus SG0.5JP17-16)”?
A: Km [1]: 27.0 ± 1.5 µM; kcat [1]: 1 ± 0.061 s⁻¹; kcat/Km [1]: 37000 ± 2700 M⁻¹ s⁻¹; Km (COc1ccccc1O): 363.3 ± 29.1 µM; kcat (COc1ccccc1O): 4.34 ± 0.216 s⁻¹; kcat/Km (COc1ccccc1O): 12000 ± 1000 M⁻¹ s⁻¹
